Variants at the floor of the assay were thinned out.
B1: TPR 5TU (parent)
chain: GGAUCUUCUCGAUCUAACAAAAAAGACAAAUCUGCCACAAAGCUUGAGAGCAUCUUCGGAUGCAGAGGCGGCAGCCUUCGGUGGCGCGAUAGCGCCAACGUUCUCAACUAUGACACGCAAAACGCGUGCUCCGUUGAAUGGAGUUUAUCAUG

Variants of: B1
Experiment: polymerase ribozyme fitness, log enrichment relative to wild type (log ratio); higher = more active; in vitro selection for triplet polymerase activity
In short: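 After PCR construction and transcription, each subunit's mutant library from a heterodimeric triplet polymerase ribozyme was annealed with a biotinylated primer, the partner subunit and triplets. Incubation was frozen, at −7 °C, and extended constructs were gel-excised, bound to streptavidin beads and amplified by RT-PCR, in one selection round done in triplicate. Fitness is the logarithm of a genotype's enrichment divided by that of the wild type, from inverse-variance-weighted replicate averages of Illumina-sequenced inputs and outputs. The base of the logarithm is 2, and genotypes needed ≥10 input reads and ≥1 read per output.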

Row | Variant | polymerase ribozyme fitness (log ratio)
1 | GGAUCUUCUCGAUCUAACAAAAAAGACAAAUCUGCCACAAAGCUUCAGUGCAUCUUCGGAUGCAGAGGCGGUAGCCUUCGGUGGCGCGAUAGCGCCAACGUUCUCAACUAUGACAUGCAAAACGCGUGCUCCGUUGAAUGGAGUUUAUCAUG | ≤ -4.2
2 | GGAUCUUCUCGAUCUAACAAAAAAGACAAAUCUGCCACAAAGCUUCAGAGCAUCUUCGGAUGCAGAGGCGGUAGCCUUCGGUGGCGCGAUAGCACCAACGUCCUCAACUGUGACACGCAAAACGGGUGCUCCGUUGAAUGGAGUUUCUCAUG | ≤ -4.2
3 | GGAUCUUCUCGAUCUAACAAAAAAGACAAAUCUGCCACAAAGCUUCAGAGCAUCUUCGGAUGCAGAGGCGGCAGCCUUCGGUGGUGCGAUAGCGCCAACGUUCUCAACUUUGACACGCAAAACGCGUGCUCCGUUGAAUGGAGUUUAUCAUG | -4.17
4 | GGAUCUUCUCGAUCUAACAAAAAAGACAAAUCUGCCACAAAGCUUCAGAGCAUCUUCGGAUGCAGCGGCGGCAGCCUUCGGUGGUGCGAUAGGGCCAACGUUCUCAACUAUGACACGUAAAACGCGUGCUCCGUUGAAUGGAGUUUAUCAUG | ≤ -4.2
5 | GGAUCUUCUCGAUCUAACAAAAAAGACAAAUCUGCCACAAAGCUUCAGAGCAUCUUCGGAUGCAGAGGCGGCAGCUUUCGGUGGCGCGAUAGCGCCAACGUUCUCAACUAUGACACGCAAAACGCGUGCUCCGUUGAAUGGAGUUUAUCAUG | ≤ -4.2
6 | GGAUCUUCUCGAUCUAACAAAAAAGACAAAUCUGCCACAAAGCUUAAGAGCAACUUCGAAUGCAGCGGCGGCAGCCUUCGGUGGCGCGACUGCGCCAACGUUCUCAAGUAUGACACGCAAAACGCGUGCUCCCUUGAAUGGAGUUUAUCAUG | ≤ -4.2
7 | GGAUCUUCUCGAUCUAACAAAAAAGACAAAUCUGCCACAAAGCUUAAGAGCAUCUUCGGAUGCAGAGGCGGCAGCCUUCGGUGUCGCGAUAGCGCCAAAGUUCUCAACUCUGAUACGCAAAACGCGUGCUCCGUUGAAUGGAGUUCAUCAUG | ≤ -4.2
8 | GGAUCUUCUCGAUCUAACAAAAAAGACAAAUCUGCCACAAAGCUUCAGAGCAUCUUAGGAUGCAGUGGCGGCAGCCUUCGGUGGCGCGAUAGCGCCAACGUUCUCAACUAUGCCACGCAAAACGCGUGCUCCGUUGAAUGGAGUUUAUCAUG | ≤ -4.2
9 | GGAUCUUCUCGAUCUAACAAAAAAGACAAAUCUGCCACAAAGCUUCAGAGCAUCUUCGGAUGCAGAGGCGGCAGCCUUCGGUGGCGUGAUAGCGCCAGCGUUCUCAACUAUGACACUCAAAACGCGUGCUCCGUUGAAUGGUGUUUAUCAUG | ≤ -4.2
10 | GGAUCUUCUCGAUCUAACAAAAAAGACAAAUCUGCCACAAAGCUUCAGAGCAUCUUCGGAUGCAGAGGCGGCAGCCUUCGGUGGCGCGAUAGCGCCAACGUUCUCAACUAUGAUACGCAAAACGCGUGCUCCGUUGAAUGGAGUUUAUCAUG | -3.67
11 | GGAUCUUCUCGAUCUAACAAAAAAGACAAAUCUGCCACAAAGCUUAAGAGCAUCGUCGGAUGCAGAGGCGGCAGCCUUAGGUGGGGCGAUAGCGCCUACGUUCUCAACUAUGACACGCAAAACGCGUGCUCCGUUGAAUGGAGUUUAUCAUG | ≤ -4.2
12 | GGAUCUUCUCGAUCUAACAAAAAAGACAAAUCUGCCACAAAGCUUCAGAGCAUCUUCGGAUGCAGAGGCGGCAGUCUUCGGUGGCGCAAUAGCGCCAACGUUCUCUACUAUGACAGGCAAAACGCGUGCUCCGUUGAAUGGAGUUUAUCAUG | ≤ -4.2
13 | GGAUCUUCUCGAUCUAACAAAAAAGACAAAUCUGCCACAAAGCUUCAGCGCAUCUAUGGAUAAAGAGGUGGCAGCCUUCGGUGGCCCGAUAGCGCCAAUGUUCUCAACUAUGACACGCAAAACGCGUGCUCCGUUGAAUGCAGUGUAUUUUG | ≤ -4.2
14 | GGAUCUUCUCGAUCUAACAAAAAAGACAAAUCUGCCACAAAGCUUAAGAGCAUCAUCCGAUGCAGAGGCGGCAGCCUUCGGUGCCGCGAUAGCGCCAACGUUCUCAACUAUGACACGCAAAACGCGUGCUCCGUUGAAUGGAGUUUAUCAUG | -2.84
15 | GGAUCUUCUCGAUCUAACAAAAAAGACAAAUCUGCCACAAAGCUUCGGAGCAUCUUCGGAUGCAGAGGCGACAGCCUUCGGUGGUGCCAUAGCGCCAACGUUCUCAACUAUGACACGCAAAACGCGUGCUCCGUUGAAUGGAGUUUAUCAUG | ≤ -4.2
16 | GGAUCUUCUCGAUCUAACAAAAAAGACAAAUCUGCCACAAAGCUUAAGAGCAUCUUCGGAUGCAGAGGCGGCAGCCUUCGGUGACGCGAUAGCGCCAACGUUCUCAACUAUGACACGCAAAACGCGUGCUCCGUUGAAUGGAGUUUAUCAUG | -2.74
17 | GGAUCUUCUCGAUCUAACAAAAAAGACAAAUCUGCCACAAAGCUUAAGAGCAUCUUCGGAGGCAGAGGCGGCAGCCUUCGGUGGCGCGAUAGCGCCAACGUUAUCAACUAUGACACGGAAAACGCGUGCUCCGUUGAAUGGAGUUUAUCAUG | ≤ -4.2
18 | GGAUCUUCUCGAUCUAACAAAAAAGACAAAUCUGCCACAAAGCUUCAGAGCAUCUUCGGAUGCAGAGGCGGCAGCCUUCGGUGGCGCGAUAGCGCUAUCGUUCUCGACUAUGACACGCAAAACGCGUGCUCCGUUGAAUGGAGUUUAUCAUG | -0.573
19 | GGAUCUUCUCGAUCUAACAAAAAAGACAAAUCUGCCACAAAGCUUAAGAGCAUCUGCGGAUGCAGAGGCGGCAGCCUUCGGUGGCGCGAUGGCGCCAACGUUCUCAACUAUGACACGCAAAACGCGUGCUCCGUUGAAUGGAGUUUAACAUG | ≤ -4.2

Row | Variant | polymerase ribozyme fitness (log ratio)
20 | GGAUCUUCUCGAUCUAACAAAAAAGACAAAUCUGCCACAAAGCUUCAGACCAUCUUCGGAUGCAGAGGCGGCAGCCUUCGGUGGCGCGGUAGCGCCAACGUUCUCACCUAUGACACGCAAAACGCGUGCUCCGUUGAAUGGAGUUUAUCAUC | ≤ -4.2
21 | GGAUCUUCUCGAUCUAACAAAAAAGACAAAUCUGCCACAAAGCUUCAGAUCCUCUUCGGUUGCAGAGGCGGCAGCCUUCCGUGGCGCGAUAGCGUCAACGUUCUCAACUAUGACACGCAAAACGCGUGCUCCGUUGAAUGGAGUUUAUCGUG | ≤ -4.2
22 | GGAUCUUCUCGAUCUAACAAAAAAGACAAAUCUGCCACAAAGCUUAAGAGCAUCAUCGGAUGCAGAGGCGGCAGCCUUCGGUGGCGCGAUAGCGCCAACGUUCUCAACUAUGACACGCAAAACGCGUGCUCCGUUGAAUGGAGUUUAUCAUG | -0.993
23 | GGAUCUUCUCGAUCUAACAAAAAAGACAAAUCUGCCACAAAGCUUCAGAGCAUUUUCGGAUGCAGAGGCGGCAGCCUUCGGUGGCGCGAUAGCGUCAACGUUCUCAACUAUGACAUGGAAAACGCGUGCUCCGUUGAAUGGAGUUUAUCAUG | -2.25
24 | GGAUCUUCUCGAUCUAACAAAAAAGACAAAUCUGCCACAAAGCUUCAGAGCAUCUUCGGAUGCAGAGGCGGCAGCCUUCGGUGGCGCGAUAGCGCCAAGGGUCUGAACUAUGACACGCAAAACACGUGCUCCGUUGAAUGGAGUUUAUCAUG | -2.54
25 | GGAUCUUCUCGAUCUAACAAAAAAGACAAAUCUGCCACAAAGCUUAAGAGCAGCUUCGGAUGCAGAGGCGGCAGCCUUCGGUGGCGCGAUAGCGCCAACGUUCUCAACUAUGACACGCAAAACGCGUGCUCCGUUGAAUGGAGUUUAUCAUG | -3.49
26 | GGAUCUUCUCGAUCUAACAAAAAAGACAAAUCUGCCACAAAGCUUCAGAGCAUUUUCGGAUGCAGAGGCGGCAGCCUUCGGUGGCGCGAUAGCACCAAAGUUCUCAACUAUGACACGCAAAACGCGUGCUCCGUUGAAUGGUGUUUAUCACG | ≤ -4.2
27 | GGAUCUUCUCGAUCUAACAAAAAAGACAAAUCUGCCACAAAGCUUAAGAGCAACUUCGGAUGCAGAGGCGGCAGCCAUCAGUGGAGCGAUAGCGCCAUCGUCCUCAACUAUGACACGCAAAACGCGUGCUCGGUUGAGUGGAGUUUAUCAUG | ≤ -4.2
28 | GGAUCUUCUCGAUCUAACAAAAAAGACAAAUCUGCCACAAAGCUUAAGAGCAACUUCGGAUGCAGAGGCGGCAGCCUUCGGUAGCGCGAAAACGCCAACGUUCUCAACUAUGACACGCAAAACGCGUGCUCCGAUGAAUGGAGUUUAUCAUG | ≤ -4.2
29 | GGAUCUUCUCGAUCUAACAAAAAAGACAAAUCUGCCACAAAGCUUCAGAUCAUCUUCGGAUGCAGAGACGGCAGCAUUCGGUGGUGCGAUAGCGCCAACGUUCUCAACUAUGACACGCAAAACGCGUGCGCCGUUGAAUGGAGUUUAUCAUG | ≤ -4.2
30 | GGAUCUUCUCGAUCUAACAAAAAAGACAAAUCUGCCACAAAGCUUCAGAGCAUCUUCGAAUGCAGAGGCGGCAGCCUUCGGAGGGGCGAUAGCGCCAACGUUCUCAACUCUGUCACGCAAAACGCUUACUCCGUUGAAUGGAGUUUAUCAUG | ≤ -4.2
31 | GGAUCUUCUCGAUCUAACAAAAAAGACAAAUCUGCCACAAAGCUUCAGAGCGUCUUCGGAUGAAGAGGCGACAGCCUUCGGUGGCGCGAUAGCGCCAACGUUCUCAACUGUGUCACGCAAAACGCGUGCUCCGUUGAAUGGAGUUUAUCAUG | ≤ -4.2
32 | GGAUCUUCUCGAUCUAACAAAAAAGACAAAUCUGCCACAAAGCUUCAGAGCAUCUUCGGAUGCAGAGGCGGCAGCCUUCGGUGGCGCGAUAGCGCCAACGUUCUGAACUAUGACACGCAAAACGCGUGCUCCGUUGAAUGGAGUUUAUCAUG | 1.29
33 | GGAUCUUCUCGAUCUAACAAAAAAGACAAAUCUGCCACAAAGCUUAAGAGCAUCUUCGGAUGCAGAGGCGGCAGCCUUCGAUGGCGCGAUAGCGCCAACGUUCUCAACUAUGACACGCAAAACGCGUGCUCCGUUAAAUGGAGUUAAUCAUG | 0.373
34 | GGAUCUUCUCGAUCUAACAAAAAAGACAAAUCUGCCACAAAGCUUCAGAGCAUCUUCCGAUGCAGAGGCGGCAGCCUUCGGUCGCGCGAUAGCGCCAACGUUCUCAACUAUGACACGCAAAACGAGUGCUCCGUUGAAUGGAGUUUAUCAUG | -4.17
35 | GGAUCUUCUCGAUCUAACAAAAAAGACAAAUCUGCCACAAAGCUUAAGAGCAUCUUCGGAUGCAGAGGCGGCAGCCUUCGGUGGCGCGAUAGCGCCAACGUUCUCAACUAUGACACGCAAAACGCGUGCUCCGUGGAAUGGAGUUUAUCAUG | -3.27
36 | GGAUCUUCUCGAUCUAACAAAAAAGACAAAUCUGCCACAAAGCUUCAGAGCAUCUUCGGAUGCAGAGGCGGCAGCCUUCGGUGGCGCGAUAGCGCAAACGUUCUCAACUAUGACACGCAAAAGGCGUGCUCCGUUGAAUGGAGUUUAUCAUG | -1.48
37 | GGAUCUUCUCGAUCUAACAAAAAAGACAAAUCUGCCACAAAGCUUAAGAGCAUCUUCGGAUGCAGAGGCGGCAGCCUUCGGUGACGCGAUAGCGCCAACGUUCUCAACUAUGACACGCCAAACGCGUGCUCCGUUAAAUGGAGUUUAUCGUG | -3.68
38 | GGAUCUUCUCGAUCUAACAAAAAAGACAAAUCUGCCACAAAGCUUCAGAGCAUUUUCGGAUGCAGGGGCGGCAGCCUUCGGUGGCGCGAUAGCAACAACGUUCUCAACUAUGACACGCAAAACGCGUGCUCCGUUGAAUGGAAUUUAUCAUG | ≤ -4.2

From the RNAGym collection of RNA variant scans (doi:10.1073/pnas.2313332121)
